In patent US20140066368A1:
Bridge positions count the residues as written; N and C are the ends. Ends that are not written are not given here.

target: amylin receptor (membrane-bound, rat basal forebrain membranes containing the nucleus accumbens and surrounding regions) (rat); assay: competition with ^125I Bolton-Hunter amylin on rat basal forebrain membranes, filtration

Row | Molecule | IC50 [nM]
1 | ^29Pro-h-Amylin (peptide) | 0.064
2 | ^1Ser-h-Amylin (peptide) | 0.033
3 | ^28Pro-h-Amylin (peptide) | 0.015
4 | KCNTATCATQRLANFLVHSSNNFGPILPSTNVGSNTY [^25,28Pro-h-Amylin] | 0.026
5 | KCNTATCATQRLANFLVRSSNNFGPILPSTNVGSNTY [^18Arg^25,28Pro-h-Amylin] | 0.032
6 | CNTATCATQRLANFLVHSSNNFGPILPSTNVGSNTY [des-^1Lys^25,28Pro-h-Amylin] | 0.085
7 | CNTATCATQRLANFLVRSSNNFGPILPSTNVGSNTY [des-^1Lys^18Arg^25,28Pro-h-Amylin] | 0.082

Now from value to molecule:

Row | IC50 [nM] | Molecule
8 | 0.148 | ^1Ala-h-Amylin (peptide)
9 | 0.01 | KCNTATCATQRLANFLVHSSNNFGPILPPTNVGSNTY-NH2 (disulfide 2-7) [^25,28,29Pro-h-Amylin]
10 | 0.31 | KDNTATKATQRLANFLVHSSNNFGAILSSTNVGSNTY (lactam 2-7; ends not checked) [^2,7Cyclo-[^2Asp,^7Lys]-h-Amylin]
11 | 0.018 | KCNTATCATQRLANFLVHSSNNFGPVLPPTNVGSNTY [^25Pro^26Val^28,29Pro-h-Amylin]
12 | 0.021 | KCNTATCATQRLANFLVRSSNNFGPILPPTNVGSNTY [^18Arg^25,28,29Pro-h-Amylin]
13 | 0.014 | CNTATCATQRLANFLVHSSNNFGPILPPTNVGSNTY [des-^1Lys^25,28,29Pro-h-Amylin]
14 | 0.021 | CNTATCATQRLANFLVRSSNNFGPILPPTNVGSNTY [des-^1Lys^18Arg^25,28,29Pro-h-Amylin]
